Values belong to the binder of their own block, whether it stands above or below them.
Key:
[1] = biological target: T1, Killer cell lectin like receptor g2 (human, UniProt A4D1S0 1-409)
T1 construct: HuProt array protein, full-length recombinant from yeast; also called KLRG2
T1 sequence: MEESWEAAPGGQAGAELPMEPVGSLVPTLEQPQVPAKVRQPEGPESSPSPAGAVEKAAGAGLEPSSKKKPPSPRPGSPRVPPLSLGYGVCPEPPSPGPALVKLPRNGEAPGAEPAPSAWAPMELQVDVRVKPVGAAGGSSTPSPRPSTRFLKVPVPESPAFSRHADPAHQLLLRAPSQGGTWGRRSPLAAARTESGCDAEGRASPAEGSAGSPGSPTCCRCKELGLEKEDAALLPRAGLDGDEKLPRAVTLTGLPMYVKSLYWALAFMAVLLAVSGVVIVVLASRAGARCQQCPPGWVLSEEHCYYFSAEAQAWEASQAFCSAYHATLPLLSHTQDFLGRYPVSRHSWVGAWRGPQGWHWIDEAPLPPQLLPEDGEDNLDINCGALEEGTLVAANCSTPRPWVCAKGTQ

[2] = biological target: T2, tripartite motif containing 35, transcript variant 1 (human, UniProt Q9UPQ4 1-493)
T2 construct: HuProt array protein, full-length recombinant from yeast; also called TRIM35
T2 sequence: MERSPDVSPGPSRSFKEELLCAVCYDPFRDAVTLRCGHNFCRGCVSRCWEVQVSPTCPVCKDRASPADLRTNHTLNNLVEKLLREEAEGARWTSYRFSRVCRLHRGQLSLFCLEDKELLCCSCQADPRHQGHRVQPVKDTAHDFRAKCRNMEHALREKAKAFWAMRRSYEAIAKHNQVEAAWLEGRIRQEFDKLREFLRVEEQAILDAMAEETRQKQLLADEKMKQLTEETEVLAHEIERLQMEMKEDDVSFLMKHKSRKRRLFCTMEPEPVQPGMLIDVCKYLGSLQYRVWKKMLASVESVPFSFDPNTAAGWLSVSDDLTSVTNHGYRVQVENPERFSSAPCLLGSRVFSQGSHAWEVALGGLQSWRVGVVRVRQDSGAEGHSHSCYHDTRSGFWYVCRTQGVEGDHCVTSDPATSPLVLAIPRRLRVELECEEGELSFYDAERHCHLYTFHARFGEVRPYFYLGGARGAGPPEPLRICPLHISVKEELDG

FMR1 autosomal homolog 2 = biological target: T3, FMR1 autosomal homolog 2 (human, UniProt P51116 1-673)
T3 construct: HuProt array protein, full-length recombinant from yeast; also called FXR2

[3] = biological target: T4, hydroxymethylbilane synthase, transcript variant X3 (human, UniProt P08397 18-361)
T4 construct: HuProt array protein, full-length recombinant from yeast; also called HMBS
T4 sequence: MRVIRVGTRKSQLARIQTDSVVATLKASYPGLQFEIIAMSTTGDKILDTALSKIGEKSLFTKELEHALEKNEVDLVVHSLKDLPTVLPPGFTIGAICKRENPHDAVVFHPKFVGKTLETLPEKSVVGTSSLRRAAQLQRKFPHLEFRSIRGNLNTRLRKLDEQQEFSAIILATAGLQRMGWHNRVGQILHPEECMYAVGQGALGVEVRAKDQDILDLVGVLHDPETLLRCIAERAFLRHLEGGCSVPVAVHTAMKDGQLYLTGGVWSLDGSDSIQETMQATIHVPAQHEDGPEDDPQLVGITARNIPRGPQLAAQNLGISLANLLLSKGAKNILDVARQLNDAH

[4] = biological target: T5, hook microtubule tethering protein 2, transcript variant 2 (human, UniProt Q96ED9 1-719)
T5 construct: HuProt array protein, full-length recombinant from yeast; also called HOOK2
T5 sequence: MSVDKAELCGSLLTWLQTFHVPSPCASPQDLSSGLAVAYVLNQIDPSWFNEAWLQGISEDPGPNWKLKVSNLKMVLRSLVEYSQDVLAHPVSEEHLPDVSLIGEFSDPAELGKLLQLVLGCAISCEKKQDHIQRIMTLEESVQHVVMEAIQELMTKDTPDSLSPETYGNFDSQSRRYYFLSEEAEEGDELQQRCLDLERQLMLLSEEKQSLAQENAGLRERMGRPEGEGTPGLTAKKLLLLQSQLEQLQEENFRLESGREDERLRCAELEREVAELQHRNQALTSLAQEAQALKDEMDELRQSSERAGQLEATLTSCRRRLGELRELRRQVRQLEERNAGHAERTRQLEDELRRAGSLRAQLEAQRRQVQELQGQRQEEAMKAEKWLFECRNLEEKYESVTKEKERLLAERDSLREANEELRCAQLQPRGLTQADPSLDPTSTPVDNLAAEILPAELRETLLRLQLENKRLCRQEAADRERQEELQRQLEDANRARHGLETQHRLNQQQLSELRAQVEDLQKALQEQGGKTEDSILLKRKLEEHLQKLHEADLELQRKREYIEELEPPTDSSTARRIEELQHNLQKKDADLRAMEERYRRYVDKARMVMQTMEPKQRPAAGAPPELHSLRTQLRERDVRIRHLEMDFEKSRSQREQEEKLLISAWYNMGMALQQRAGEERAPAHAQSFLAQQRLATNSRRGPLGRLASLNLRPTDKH

[5] = biological target: T6, family with sequence similarity 177 member A1, transcript variant 2 (human, UniProt Q8N128 1-213)
T6 construct: HuProt array protein, full-length recombinant from yeast; also called FAM177A1
T6 sequence: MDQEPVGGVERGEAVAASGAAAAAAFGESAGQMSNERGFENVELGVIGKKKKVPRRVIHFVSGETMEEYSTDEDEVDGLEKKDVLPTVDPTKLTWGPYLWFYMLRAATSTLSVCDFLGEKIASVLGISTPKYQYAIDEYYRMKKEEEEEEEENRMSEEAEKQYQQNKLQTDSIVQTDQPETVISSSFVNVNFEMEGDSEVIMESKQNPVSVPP

[6] = biological target: T7, RAN binding protein 10, transcript variant 1 (human, UniProt Q6VN20 2-620)
T7 construct: HuProt array protein, full-length recombinant from yeast; also called RANBP10

[7] = biological target: T8, methyltransferase like 21C (human, UniProt Q5VZV1 1-264)
T8 construct: HuProt array protein, full-length recombinant from yeast; also called METTL21C

DEAD-box helicase 18 = biological target: T9, DEAD-box helicase 18 (human, UniProt Q9NVP1 1-670); test: protein array
T9 construct: on protein array; also called DDX18
T9 sequence: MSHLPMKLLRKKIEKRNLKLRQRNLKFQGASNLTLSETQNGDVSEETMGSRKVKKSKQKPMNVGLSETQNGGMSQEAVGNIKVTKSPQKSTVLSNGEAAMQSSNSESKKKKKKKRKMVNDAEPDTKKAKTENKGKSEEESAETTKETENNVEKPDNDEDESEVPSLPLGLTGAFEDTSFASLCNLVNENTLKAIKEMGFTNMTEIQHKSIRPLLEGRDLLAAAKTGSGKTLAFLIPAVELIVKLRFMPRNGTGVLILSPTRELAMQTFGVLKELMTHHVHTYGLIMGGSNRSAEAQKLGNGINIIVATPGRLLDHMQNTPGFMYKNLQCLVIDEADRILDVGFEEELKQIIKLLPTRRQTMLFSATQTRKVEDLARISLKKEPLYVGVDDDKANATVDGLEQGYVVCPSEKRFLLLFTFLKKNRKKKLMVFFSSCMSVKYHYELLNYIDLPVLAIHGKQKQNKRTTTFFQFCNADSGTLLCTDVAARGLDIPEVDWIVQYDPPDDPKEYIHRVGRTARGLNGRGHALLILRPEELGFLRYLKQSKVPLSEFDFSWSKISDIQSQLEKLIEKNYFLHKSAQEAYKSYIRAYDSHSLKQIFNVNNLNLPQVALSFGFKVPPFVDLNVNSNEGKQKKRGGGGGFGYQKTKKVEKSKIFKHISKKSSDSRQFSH

[8] = biological target: T10, syntaxin 1A, transcript variant 1 (human, UniProt Q16623 1-288); test: protein array
T10 construct: on protein array; also called STX1A

[9] = biological target: T11, geminin DNA replication inhibitor, transcript variant 1 (human, UniProt O75496 1-209); test: protein array
T11 construct: on protein array; also called GMNN
T11 sequence: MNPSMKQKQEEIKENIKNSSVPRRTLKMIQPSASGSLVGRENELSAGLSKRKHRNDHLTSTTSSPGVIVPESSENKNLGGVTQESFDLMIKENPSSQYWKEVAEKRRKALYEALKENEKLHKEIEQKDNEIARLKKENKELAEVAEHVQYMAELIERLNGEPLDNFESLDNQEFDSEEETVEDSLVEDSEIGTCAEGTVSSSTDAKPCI

annexin A1 = biological target: T12, annexin A1 (human, UniProt P04083 2-346)
T12 construct: HuProt array protein, full-length recombinant from yeast; printed 'annexin Al'; also called ANXA1
T12 sequence: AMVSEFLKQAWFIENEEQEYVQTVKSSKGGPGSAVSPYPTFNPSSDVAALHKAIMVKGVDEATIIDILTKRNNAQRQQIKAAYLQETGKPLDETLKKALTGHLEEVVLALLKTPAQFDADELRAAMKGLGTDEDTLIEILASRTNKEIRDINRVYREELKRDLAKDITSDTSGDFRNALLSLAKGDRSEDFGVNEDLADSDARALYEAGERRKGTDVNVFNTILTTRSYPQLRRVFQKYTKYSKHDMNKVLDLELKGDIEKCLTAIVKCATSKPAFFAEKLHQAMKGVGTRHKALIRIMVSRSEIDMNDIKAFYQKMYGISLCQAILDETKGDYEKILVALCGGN

T8 sequence (Q5VZV1 whole entry): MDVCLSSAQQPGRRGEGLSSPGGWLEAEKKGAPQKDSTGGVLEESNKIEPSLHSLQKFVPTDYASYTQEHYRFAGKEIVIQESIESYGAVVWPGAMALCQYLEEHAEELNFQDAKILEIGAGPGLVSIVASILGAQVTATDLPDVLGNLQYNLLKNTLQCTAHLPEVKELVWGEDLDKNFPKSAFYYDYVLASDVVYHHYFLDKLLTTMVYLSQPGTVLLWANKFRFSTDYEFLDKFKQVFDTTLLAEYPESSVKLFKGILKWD
T3 sequence (P51116 whole entry Q252H): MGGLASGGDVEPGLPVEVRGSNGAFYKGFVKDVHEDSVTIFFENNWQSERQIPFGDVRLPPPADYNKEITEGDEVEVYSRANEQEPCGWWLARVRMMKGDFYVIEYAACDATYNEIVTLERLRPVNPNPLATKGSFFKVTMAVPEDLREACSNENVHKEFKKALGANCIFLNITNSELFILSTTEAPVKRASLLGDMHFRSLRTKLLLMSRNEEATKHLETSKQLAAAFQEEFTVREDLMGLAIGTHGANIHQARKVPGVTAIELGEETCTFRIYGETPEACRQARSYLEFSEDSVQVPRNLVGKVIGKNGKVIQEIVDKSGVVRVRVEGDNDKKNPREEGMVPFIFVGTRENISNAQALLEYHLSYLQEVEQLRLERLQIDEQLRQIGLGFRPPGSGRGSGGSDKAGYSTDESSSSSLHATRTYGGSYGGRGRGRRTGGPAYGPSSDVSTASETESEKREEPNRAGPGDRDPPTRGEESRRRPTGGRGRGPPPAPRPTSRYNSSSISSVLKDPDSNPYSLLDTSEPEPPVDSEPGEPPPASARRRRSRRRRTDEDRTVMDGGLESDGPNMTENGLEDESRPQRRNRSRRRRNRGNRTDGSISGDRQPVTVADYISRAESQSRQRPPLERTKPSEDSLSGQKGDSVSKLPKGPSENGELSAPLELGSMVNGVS
T7 sequence (Q6VN20 2-620 limits assumed, change not shown): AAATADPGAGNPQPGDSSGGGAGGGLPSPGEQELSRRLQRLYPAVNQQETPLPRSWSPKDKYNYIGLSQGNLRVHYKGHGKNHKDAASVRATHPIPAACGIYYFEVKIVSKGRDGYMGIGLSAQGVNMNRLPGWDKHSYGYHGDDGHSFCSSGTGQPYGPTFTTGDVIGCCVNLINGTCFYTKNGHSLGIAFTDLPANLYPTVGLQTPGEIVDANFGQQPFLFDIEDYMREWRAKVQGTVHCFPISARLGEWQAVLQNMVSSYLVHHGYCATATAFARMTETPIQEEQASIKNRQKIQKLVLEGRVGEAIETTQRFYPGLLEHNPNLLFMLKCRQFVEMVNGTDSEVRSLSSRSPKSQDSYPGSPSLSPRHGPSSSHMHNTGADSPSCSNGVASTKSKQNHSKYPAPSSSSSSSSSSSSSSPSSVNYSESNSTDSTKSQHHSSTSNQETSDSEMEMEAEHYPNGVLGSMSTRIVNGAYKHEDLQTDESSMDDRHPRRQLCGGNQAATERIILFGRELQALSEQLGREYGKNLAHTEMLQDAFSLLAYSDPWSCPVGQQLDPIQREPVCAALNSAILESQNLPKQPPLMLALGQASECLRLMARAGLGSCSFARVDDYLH
T10 sequence (Q16623 whole entry, change not shown): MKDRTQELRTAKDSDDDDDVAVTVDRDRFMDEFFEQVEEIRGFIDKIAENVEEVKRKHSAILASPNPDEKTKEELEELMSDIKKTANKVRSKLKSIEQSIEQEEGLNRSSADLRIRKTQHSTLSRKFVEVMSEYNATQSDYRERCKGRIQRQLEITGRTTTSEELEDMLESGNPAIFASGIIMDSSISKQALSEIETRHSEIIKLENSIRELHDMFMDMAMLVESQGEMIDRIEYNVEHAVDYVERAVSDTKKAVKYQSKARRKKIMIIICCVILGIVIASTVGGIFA

B2: TLUS1006 (antibody, V domains shown)
VH: PVHLVQSGAEVRKPGSSVKVSCMASGGSFNTYAVNWVRQAPGQGLEWMGGIIPVFGTTNYAPRFQGRVTITADESTSTVYMELTSLTSEDTAVYYCARDRDSGYERNCLDPWGQGTLVTVSS
VL: DIVMTQSPDSLAVTLGERATINCRSSQTVLYDSNNKNYLAWYQQKPGQPPKLLIYWASIRESGVPDRFSGSGSGTDFTLTINTLQAEDVAIYFCQQYFTTPRTFGQGTKVEIKR
notes: detected with anti-human IgG Fc
- binding result [3]: binds
- binding result [4]: binds

B3: TLUA1016 (antibody, V domains shown)
VH: EVQLLESGGALVQPGGSLRLSCAVSGLTFNRFAMTWVRQAPGKGLEWVSHIGGSGGYTYYADSVKGRFTISRDNSKNTLYLQMNSLRAEDTAVYHCVKLKGIGAMWTYAMDVWGQGTTVTVSS
VL: QSVLTQPPSVSGAPGQRVTIPCTGSSSNLGAGYAVHWYQQLPATTPKLLIYANSSRPSGVPDRFSGSRSDTSASLAITGLQAEDEADYYCQSYDSSLSGYVFGTGTWVTVLS
notes: as for B2
- binding result [5]: binds

B5: TLUS1003 (antibody, V domains shown)
VH: QVHLVQSGSEFKKPGASVKISCKTSGYTFTNYAMNWVRQAPGQGLEWVGWINTVTGIPGYAQGFTGRFIISLDTSGRTSYLQINSLQAEDTAVYYCARSGGFGWSRDLDYWGQGTLVTVSS
VL: DIVLTQSPLSLPVTPGEPASISCRSSQSLLHSNGVYYLDWYLLKPGQSPQLVIYMGSSRASGVPDRFSGSGSGTDFRLKISRVEAEDVGIYYCMQALQTPWTFGQGTKVEIKR
notes: as for B2
- binding result [7]: binds

B6: TBRE1027 (antibody, V domains shown)
VH: EVQLLESGGGLVQPGGSLRLSCAASGFTFSSYAMSWVRQAPGKGLEWVSTISGSGHSTYYADSVKGRFTISRDNSKNTLYLQMNSLRAEDTAVYYCAKSTLGGGFDFWGQGTLVTVSS
VL: DIQMTQSPFSLSASVGDRVTITCRASQSISSYLNWYQQKPGKAPKLLIYAASSLQSGVPSRFSGSGSGTDFTLTISSLQPEDFATYYCHQSYSTSLTFGGGTKVEIKR
notes: VH/VL only
- binding result (DEAD-box helicase 18): binds
- binding result [8]: binds
- binding result [9]: binds

B7: TLUA1004 (antibody, V domains shown)
VH: EVQLVESGGGLVQTGGSLRLSCSASGFTFNNYWMHWVRQAPGKGLLWLSRINTDGSRGHYDDSVQGRFTISRDNAKQTVYLQMDGLRAEDTAVYFCARDGYDFRAFDHWGQGVLVTVSS
VL: DIQMTQSPSSLSASVGDKVTMTCRASQFISVYVNWYQQKPGKAPKLLIYTASSLESGVSSRFSGGGSGTDFTLTIRSLQPEDFAIYYCQQTYSTPWTFGPGTRVEIKR
notes: as for B2
- binding result (annexin A1): binds

More lines, main results first:

- binding result [2]: binds
- binding result (FMR1 autosomal homolog 2): binds
B1: TLUA1001 (antibody, V domains shown)
VH: PLQLQESGPGLVKPSETLSLTCSVSGGSIRSSAPFWGWIRQPPGKGLEWIGNIYYNGDTSYSPSLENRVTLFVDTSKNQFSLNLTSVTAADTAVYYCGRIMTPSIDLWGQGKLVTVSS
VL: EIVLTQSPGTLSLSPGERATLSCRASQSISSTYLVWYQQKPGQAPRLLIYAASYRATGIPDRFSGSGSGTDFILTISRLEPEDFAVYYCQQYGSSLTFGGGTKVEIKR
notes: as for B2
- binding result [1]: binds

- binding result [6]: binds
B4: TMEL1017 (antibody, V domains shown)
VH: EVQLVESGGGLVKPGGSLRLSCAASGFTFSNYNMNWVRQAPGKGLEWVSSISSSSSYIYYADSVKGRFTISRDNAKNSLYLQMNSLRAEDTAVYYCARDALDFDWLLSAGGFDYWGQGTLVTVSS
VL: ASALTQPASVSGSPGQSITISCTGTSSDVGGYNYVSWYQQHPGKAPKLMIYEVSNRPSGVSNRFSGSKSGNTASLTISGLQAEDEADYYCSSYTSSSTLVFGGGTKLTVLG
notes: as for B2
